Results from patent US20100173362A1 (published 2010).
Numbering of substitutions follows the chain as printed. Blank lines part the entries; values can stand above or below the binder they belong to.

What was measured:
[1] = molecular target: T1, recombinant human HGF (R&D Systems, Catalog No. 294-HGN-025) (human, UniProt P14210 32-728); assay: SPR (BIAcore), KD at 25 C against KD at 37 C; lower end fits sh2B8-9 in Table 19
T1 construct: also called rhHGF (R&D Systems); hHGF
Experimental: (§1) The antibodies were captured in an individual flow cell at a flow rate of 10 μL/min. Injection time was variable for each antibody to yield approximately 20 RU of antibody captured for each cycle. […] The dissociation phase was monitored for 15 or 90 minutes, depending on concentration. The surface of mouse anti-human immunoglobulins sensor chips was then regenerated with 10 mM Glycine-HCl, pH 2.2 (BIAcore, Catalog No. BR-1003-54) injected for 3 minutes at a flow rate of 60 μL/min before another cycle was initiated. The surface of rabbit anti-mouse immunoglobulins sensor chips was regenerated with 10 mM Glycine-HCl, pH 1.7 (BIAcore, Catalog No. BR-1003-54) injected for 3 minutes at a flow rate of 60 μL/min before another cycle was initiated.

[2] = molecular target: T1, recombinant human HGF (R&D Systems, …); assay: cell-based or functional assay
[3] = molecular target: T1, recombinant human HGF (R&D Systems, …); assay: SPR (BIAcore), KD at 25 C against KD at 37 C; upper end fits 2B8 in Table 19
Experimental: as §1

T1 sequence (P14210 32-728 limits assumed): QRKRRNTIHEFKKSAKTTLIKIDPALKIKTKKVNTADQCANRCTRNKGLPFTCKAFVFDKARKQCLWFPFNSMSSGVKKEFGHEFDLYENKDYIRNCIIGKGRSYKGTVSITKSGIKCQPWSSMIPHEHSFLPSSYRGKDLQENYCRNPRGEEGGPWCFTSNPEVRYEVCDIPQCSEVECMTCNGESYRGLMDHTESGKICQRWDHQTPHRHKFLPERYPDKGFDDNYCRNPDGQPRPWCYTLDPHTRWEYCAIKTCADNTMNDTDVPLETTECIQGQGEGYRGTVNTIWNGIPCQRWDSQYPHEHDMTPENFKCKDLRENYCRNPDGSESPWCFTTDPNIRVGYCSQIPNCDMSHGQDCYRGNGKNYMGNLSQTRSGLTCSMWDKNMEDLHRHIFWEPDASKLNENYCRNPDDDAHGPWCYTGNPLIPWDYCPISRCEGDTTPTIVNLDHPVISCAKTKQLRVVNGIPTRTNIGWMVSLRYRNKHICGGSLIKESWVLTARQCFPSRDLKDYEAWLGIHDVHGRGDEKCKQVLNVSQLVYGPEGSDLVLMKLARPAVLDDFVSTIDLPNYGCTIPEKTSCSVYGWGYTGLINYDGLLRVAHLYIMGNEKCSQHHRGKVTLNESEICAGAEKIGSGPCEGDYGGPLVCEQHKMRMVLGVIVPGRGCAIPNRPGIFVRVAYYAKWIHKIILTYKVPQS

- fold smaller KD at 37° C. than at 25° C. [1]: 1.4 to 3 fold
- HGF-stimulated c-Met phosphorylation in PC-3 cells, Average of Two Trials [2]: 0.93 nM
B1: sh2B8-9 (G1m(3)) (antibody, human IgG1, kappa)
heavy: not shown
light: DIQMTQSPSSLSASVGDRVTITCKASENVVSYVSWYQQKPGKAPKLLIYGASNRNTGVPSRFSGSGSGTDFTLTISSLQPEDFATYYCGQSYNYPYTFGQGTKLEIKRTVAAPSVFIFPPSDEQLKSGTASVVCLLNNFYPREAKVQWKVDNALQSGNSQESVTEQDSKDSTYSLSSTLTLSKADYEKHKVYACEVTHQGLSSPVTKSFNRGEC
notes: superhumanized 2B8, human IgG1 G1m(3) allotype (allele 2), kappa Km(3) (allele 2), made in 293T cells

- fold smaller KD at 37° C. than at 25° C. [3]: 1.4 to 3 fold
- HGF-stimulated c-Met phosphorylation in PC-3 cells, Average of Two Trials [2]: 0.91 nM
B2: 2B8 (antibody, mouse IgG1, kappa)
heavy: QVQLQQPGAELVKPGTSVKLSCKASGYTFTTYWMHWVNQRPGQGLEWIGEINPTNGHTNYNEKFKSKATLTVDKSSSTAYMQLSSLTSEDSAVYYCARNYVGSIFDYWGQGTTLTVSSAKTTPPSVYPLAPGSAAQTNSMVTLGCLVKGYFPEPVTVTWNSGSLSSGVHTFPAVLQSDLYTLSSSVTVPSSTWPSETVTCNVAHPASSTKVDKKIVPRDCGCKPCICTVPEVSSVFIFPPKPKDVLTITLTPKVTCVVVDISKDDPEVQFSWFVDDVEVHTAQTQPREEQFNSTFRSVSELPIMHQDWLNGKEFKCRVNSAAFPAPIEKTISKTKGRPKAPQVYTIPPPKEQMAKDKVSLTCMITDFFPEDITVEWQWNGQPAENYKNTQPIMDTDGSYFVYSKLNVQKSNWEAGNTFTCSVLHEGLHNHHTEKSLSHSPGK
light: NIVMTQSPKSMSMSVGERVTLSCKASENVVSYVSWYQQKPAQSPKLLIYGASNRNTGVPDRFTGSGSATDFTLTISSVRAEDLADYHCGQSYNYPYTFGGGTRLEIKRADAAPTVSIFPPSSEQLTSGGASVVCFLNNFYPKDINVKWKIDGSERQNGVLNSWTDQDSKDSTYSMSSTLTLTKDEYERHNSYTCEATHKTSTSPIVKSFNRNEC
notes: also called murine 2B8; mouse 2B8

- HGF-stimulated c-Met phosphorylation in PC-3 cells, Average of Two Trials [2]: 0.8 nM
B3: HE2B8-1 (antibody, human IgG1, kappa, V domains shown)
VH: QVQLVQPGAEVVKPGTSVKLSCKASGYTFTTYWMHWVNQAPGQGLEWIGEINPTNGHTNYNEKFKGKATLTVDKSTSTAYMELSSLRSEDTAVYYCARNYVGSIFDYWGQGTLLTVSS
VL: DIVMTQSPDSMAMSVGERVTLNCKASENVVSYVSWYQQKPGQSPKLLIYGASNRNTGVPDRFSGSGSATDFTLTISSVQAEDVADYHCGQSYNYPYTFGQGTKLEIKR

- HGF-stimulated c-Met phosphorylation in PC-3 cells, Average of Two Trials [2]: 0.88 nM
B4: HE2B8-2 (antibody, human IgG1, kappa, V domains shown)
VH: B3 VH
VL: B3 VL with M11L, V15L, N55E, T56S

- HGF-stimulated c-Met phosphorylation in PC-3 cells, Average of Two Trials [2]: 0.75 nM
B5: HE2B8-4 (antibody, human IgG1, kappa, V domains shown)
VH: B3 VH with V12K, N38R, E62Q, K65Q, K67R
VL: B3 VL with M11L, V15L, N55E, T56S

- HGF-stimulated c-Met phosphorylation in PC-3 cells, Average of Two Trials [2]: 0.79 nM
B6: HE2B8-3 (antibody, human IgG1, kappa, V domains shown)
VH: B3 VH with V12K, N38R, E62Q, K65Q, K67R
VL: B3 VL
